According to a protein production outcome set (Wang et al. 2014):

Experiment: label from the status in PepcDB records
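Also: failed if final PepcDB status was selected cloned or expressed and not failed if soluble or beyond.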

Sequence | protein production
SNRLPDDYDPYAVEEPSDEEPALSSSEDEVDVLLHGTPDQKRKLIRECLTGESESSSEDEFEKEMEAELNSTMKTMEDKLSSLGTGSSSGNGKVATAPTRYYDDIYFDSDSEDEDRAVQVTKKKKKKQHKIPTNDELLYDPEKDNRDQAWVDAQRRGYHGLGPQRSREQQPVPNSDAVLNCPACMTTLCLDCQRHESYKTQYRAMFVMNCSINKEEVLRYKASENRKKRRVHKKMRSNQEDAAEKAETDVEEIYHPVMCTECSTEVAVYDKDEVFHFFNVLASHS | not failed
SPARPFTVRAPASSANLGPGFDSLGLSVPLYTTLRVTPQDKAEVVPLGTELADTPADESNYVYRAMTLAAKRAGRTLPPARVEIETEVPLARGLGSSAAALVAGVVAGNELLGRPLDDETVLDVTAREEGHPDNVAPALFGGIVVATLDKLGTHY | failed
SPINPYKDHMSVLKAYYAMNMEPNSDELLKISIAVGLPQEFVKEWFEQRKVYQYSNSR | not failed
SPKMDVHETDHEVILECDIPGLESKEDLQIDVEPRSVRIEGRIKRSKEVHDERFYRREREIGHFRRVVPLPAEVAEDDIRAAYRNGVLEVRMRKRLDDRRRTIDVEFH | failed
SQIYASDGETELARIVPPEGNRQMVTIDQVPDTVKNAVVAAEDREFYTNPGFSITGYARAALGVITGDSSAGGGSTITQQYVKKAVVGDERSLIRKAKELVYSAKMANEWSKDEVLEAYLNTVYFGRNAYGVQAAAHAFFDKPVEELTAAEGAVLAASIQLPSQLDPWTNP | failed
SREPVDILREQKINAEWALKQQSDKLAAQFDNMDDAYLRERKQDMLQVVRRIHNNLIGQGNELEVADNLFDETVLIANDLSPADTVLFKEQR | failed
SRFLVLGGAGSIGQAVTKEIFKRNPKKLHVVDISENNMVELVRDIRSSFGYIDGDFQTFALDIGSLEYDAFIKADGKFDYVLNLSALKHVRSEKDPYTLMRMIDVNVFNTDKTIQQSIDAGAKKYFCVSTDKAANPVNMMGASKRIMEMFLMRKSEQIAISTARFANVAFSDGSLLHGFNQRIQKRQPIVAPND | failed
SRIEERKAIIGLYNYAHEMTHGASDREYPRLGQMIVDYENPLKKMMEEFVPHSKSLSDALISLQMVYPRRNLSADQWRNAQLLSLISAPSTMLNPAQSDTMPCEYLSLDAMEKWIIFGFILCHGILNTDATALNLWKLALQSSSCLSLFRDEVFHIHKAAEDLFVNIRGYNKRINDIRECKEAAVSHAGSMHRERRKFLRSALKELATVLSDQPGLLGPKALFVFMALSFARDEIIWLLRHADNMPKKSADDFIDKHIAELIFYMEELRAHVRKYGPVMQRYYVQYLSGFDAVVLNELVQNLSVCPEDESIIMSSFVNTMTSLSVKQVEDGEVFDFRGMRLDWFRLQAYTSVSKASLGLADHRELGKMMNTIIFHTKMVDSLVEMLVETSDLSIFCFYSRAFEKMFQQCLELPSQSRYSIAFPLLCTHFMSCTHELCPEERHHIGDRSLSLCNMFLDEMAKQARNLITDICTEQCTLSDQLLPKHCAKTISQAVN | failed
SRLPKSPPYTAFLGNLPYDVTEESIKEFFRGLNISAVRLPREPSNPERLKGFGYAEFEDLDSLLSALSLNEESLGNKRIRVDVADQAQDKD | not failed
SRPATPPVTPPSREGHVADLDRFPQDLRVYAMKAGADRQLLPFTEQAAQDARWNRRFFAPWRMTRISVPVKDVAAPFGTDGRPRGYAENLLPWDVTRWGALASGAALDLYPSQAWKGIVVSNSALREVPTLRPMFTAPTRAGQGYPFDMFQRTAVWMGTPVFVGHATADRAWLYVETAFAAGWMPAADVARVDDAFMTRYESGSLAAILRDDTSLNGADGTHLATAHIGTVLPLSGASQVGRTVLVPVRAPEGHAVVVPVLLTSGEAAQKPVPLTPGNMAELGNRMMGQPYGWGGLYEDRDCSSTLRDLFTPFGLWLPRNSASQAKAGRYVDIAKLDADDKEARIVAEGVPFMTLLWLRGHITLYLGLHEGQAAMFHNMWGIRTHRGGVEGRYVLGRAVVTSTRPGLDVPGNDNADGLLGRMQGMSILPGGAQ | not failed
SSAHMSGLEIMDEDQLIKDVLDKFLNCHEQTYDEEFLNTFTHLSQDLLLLPGEVEQDVSTSIPSCIPFVAQPPTCEVKPKPSVKRMDKQTEEILGDEVQLFSLDEEFDYDNVMLTSKFSPAEIENIKELCKQQKRKDTSPDLEKSCD | failed
SSANEDQEMELEALRSIYEGDESFRELSPVSFQYRIGENGDPKAFLIEISWTETYPQTPPILSMNAFFNNTISSAVKQSILAKLQEAVEANLGTAMTYTLFEYAKDNKEQFMENHNPINSATSISNIISIETPNTAPSSKKKDKKEQLSKAQKRKLADKTDHKGELPRGWNWVDVVKHLSKTGSKDDE | failed
SSEAKKGHVLFFPYPLQGHINPMIQLAKRLSKKGITSTLIIASKDHREPYTSDDYSITVHTIHDGFFPHEHPHAKFVDLDRFHNSTSRSLTDFISSAKLSDNPPKALIYDPFMPFALDIAKDLDLYVVAYFTQPWLASLVYYHINEGTYDVPVDRHENPTLASFPGFPLLSQDDLPSFACEKGSYPLLHEFVVRQFSNLLQADCILCNTFDQLEPKVVKWMNDQWPVKNIGPVVPSKFLDNRLPEDKDYELENSKTEPDESVLKWLGNRPAKSVVYVAFGTLVALSEKQMKEIAMAISQTGYHFLWSVRESERSKLPSGFIEEAEEKDSGLVAKWVPQLEVLAHESIGCFVSHCGWNSTLEALCLGVPMVGVPQWTDQPTNAKFIEDVWKIGVRVRTDGEGLSSKEEIARCIVEVMEGERGKEIRKNVEKLKVLAREAISEGGSSDKKIDEFVALLT | failed
SSGVIAFDEGFRVTTVNQGAQTILQADLRSVIGRPLETVDGMLEFAQVVRQAFAAHAAVGSERLHWQQQFEITPGLDETGGQPVTLLARGTHLRVD | failed
SSISQQTIAETDGDSAGSDSFPVGRTHHRWYLCHFGQSLIHVIQVVIGYFIMLAVMSYNTWIFLGVVLGSAVGYYLAYPLLSTA | failed
SSKELLMKLRRKTGYSFVNCKKALETCGGDLKQAEIWLHKEAQKEGWSKAA | not failed
SSSSCTVTTGTLGFGDKFKRPIGSWECSVCCVSNNAEDNKCVSCMSEKPG | not failed
STGESSSVSERGSLKQQLREYIRWEEAARNLLGLIEAKENRNHQPPQPKALGNQQPSWDSEDSSNFKD | failed
STGNGWFAGFPIFSWYFGRDGLWMGLAANTVGMSHLTREHMRTLLIYSKDGRIPHEIGLSNDGMQSYSISDRIFNTMYMSIDSSLLWLLSNKSLENWESKGFEHDNVTRVFKFASSCDSDGDGLLENNFSDGLIGWPETWANIRNGKAVDINALWVKTVELYSNELNIANAEELKKKYLESFFSNVSFTDFIDNSGYAKSVKSAMQFVPGIFFTNNNIVETIKQLAEGNLTPWGVRSVSVDDPMFDGGYHTGTVWPLMTGWFVLSAYKNGLKDIAFKQLMTFSELAFSSPDLGRINETYDSMIANPTGQFAQGWSSSMLVLSVMQGLLGIDSIEF | failed
STIIYIKDLNGRYTLVNNKYCEVLGIERRKIIGAMDFELFQPPLAELYQQNDQRANNSHDALHFEEPIPTPRGEIIYHMTKFDIRDDE | failed
STTEEESLSAAEEGYNVQRDYWRQAEESDGFDIENIKLPPGMHGRVMGLITYNCQLCYRYPFPVLVKLYAKFGLHRYNLIKGTSFELAALMKFNMLQNYMSSFYMTLLAHDPDPAASSSQKTFQVRVDEQQFGTLGINCSIARPKHEGDLLEVSTKTPFIPHFHGGALGDGIFKGELPDCLSDDALNALMEAVSKDELPEHVLDDALYARAGGIFQGELPDWPSDDALNDGKRFYMLKESEWQATDWISMYLELVITTTDRSITEPEVLSKLEIVKVAIETATKDEEPSNERLKAYRAHFYITFKGLAEPRAPRQVFEIGEHVERQAIVRRVMGHRGDLTLKGKLCGGQYIKRRSLALKSGEESPNCKKQTRVG | failed
SVQEAPAALPTEPGPSPVPAFLGKLWALVGDPGTDHLIRWSPSGTSFLVSDQSRFAKEVLPQYFKHSNMASFVRQLNMYGFRKVVSIEQGGLLRPERDHVEFQHPSFVRGREQLLERVRRKVPALRGDDGRWRPEDLGRLLGEVQALRGVQESTEARLRELRQQNEILWREVVTLRQSHGQQHRVIGKLIQCLFGPLQAGPSNAGGKRKLSLMLDEGSSCPTPAKFNTCPLPGALLQDPYFIQSPLPETNLGLSPHRARGPIISDIPEDSPSPEGTRLSPSSDGRREKGLALLKEEPASPGGDGEAGLALAPNECDFCVTAPPPLPVAVVQAILEGKGSFSPEGPRNAQQPEPGDPREIPDRGPLGLESGDRSPESLLPPMLLQPPQESVEPAGPLDVLGPSLQGREWTLMDLDMELSLMQPLVPERGEPELAVKGLNSPSPGKDPTLGAPLLLDVQAALGGPALGLPGALTIYSTPESRTASYLGPEASPSP | not failed
SVSAGVQAVESILDREEIRRVILVGAGTGAGVALEIAKNQPRRVERLVLDSPLVTFDEKQLKGMSTALKMMPGFFFRKKNKKDLLQQVEEARTAVPMGFSEITMPTLIIRGSAAKAGIDSDLEKQIPSARATTIIGANWLTYTTHGRQTGAAIAEFLAQ | failed
SVVAKVKIPEGTILTMDMLTVKVGEPKGYPPEDIFNLVGKKVLVTVEEDDTIMEELVDNHGKKIKS | not failed
SYDYQSAFDIIGPVMMGPSSSHTAGAVKIGNSARAVLGDMPKHIEIRYYESFAKTHQGHGTDVAIVGGAMGYSTFDSRIKSSLDIAKDENITIDIIEDEGESIGQHPNCAYIKANTKDGRYIEVIGISIGGGTIKLKGINVNGLNVELNHG | failed
TARLVAGLEDVQVYDGEDAVFSLDLSTIIQGTWFLNGEELKSNEPEGQVEPGALRYRIEQKGLQHRLILHAVKHQDSGALVGFSCPGVQDSAALTIQES | not failed
TDDEEKDNNGQGSVSVETNYLPIADPYVMFYNNKYYAYGTGGTTAGEGFACFSSDDLKNWKREGQALSATDSYGTWGFWAPEVYYVESKKKFYLFYSAEEHICVATSTTPEGPFRQEVKQPIWSEKSIDTSLFIDDDGTPYLYFVRFTDGNVIWVAQMTDDLMSIKTETLNQCIKAEVSWELLQGKVAEGPSLLKKNGVYYLIYSANHYENKGYGVGYATSDTPMGPWVKYSKNPLLQGDAATGLVGTGHGAPFQCKDGSWKYIFHAHWSAAEIQPRTSYIKDFAISDQGVVTISGTVIKPRVLK | not failed
THSVETPYGSVTFTVYGTPKPKRPAIFTYHDVGLNYKSCFQPLFRFGDMQEIIQNFVRVHVDAPGMEEGAPVFPLGYQYPSLDQLADMIPCILQYLNFSTIIGVGVGAGAYILSRYALNHPDTVEGLVLINIDPNAKGWMDWAAHKLTGLTSSIPDMILGHLFSQEELSGNSELIQKYRGIIQHAPNLENIELYWNSYNNRRDLNFERGGETTLKCPVMLVVGDQAPHEDAVVECNSKLDPTQTSFLKMADSGGQPQLTQPGKLTEAFKYFLQG | not failed
TIATSGKLNWGIRESFNNYTNGASKVEDGATLISTNNFEFKLEKATYDAAKERTEAQFRGKIVYLKYCDDMKTFTNCQLDLTIKDPKIVISNEENYVEAVVDSKQYPSGEWYKSNGPVKIANLYPGSATVDSKDNSTEWTNVVSALANPGGVKMFSEFYGENEGLAPLSFSYDG | failed
TIDIDLQKEVEALLDKQIKKLRSQGAKDMDNAMMVVQNPKNGDILALAGKQINKSGKMTDYDIGTFTSQFAVGSSVKGGTLLAGYQNKAIKVGETMVDEPLHFQGGLTKRSYFNKNGHVSINDKQALMHSSNVYMFKTALKLAGDPYYSGMALPSDISSPAQKLRRGLNQVGLGVKTGIDLPNETRGQIEPLTNNPGNYLDLSIGQYDTYTPLQLSQYVSTIANDGYRIQPHIGLTIHESTNKDEVGPLKKKINGTVLNKVNNTEKEIKQIQEGFKMAFNDKDGTGYVSFKDTVVPTAGKTGTAEVFQNGEPRVNSTYIGYAPIDDPKLAFSIVYTNQPVPPPWLTGGDLGRDVINYYFKQLGKDDK | failed
